From article PMC7761795 (Biochemistry, 2020)

Tests used:
OTUB1 (C91S) = OTUB1 (C91S) (human (by the printed UniProt accession), UniProt Q96FW1 1-271, C91S); test: ITC
OTUB1 wild-type = OTUB1 wild-type (human (by the printed UniProt accession), UniProt Q96FW1 1-271); test: ITC
OTUB1 wild-type, sequence (Q96FW1 whole entry): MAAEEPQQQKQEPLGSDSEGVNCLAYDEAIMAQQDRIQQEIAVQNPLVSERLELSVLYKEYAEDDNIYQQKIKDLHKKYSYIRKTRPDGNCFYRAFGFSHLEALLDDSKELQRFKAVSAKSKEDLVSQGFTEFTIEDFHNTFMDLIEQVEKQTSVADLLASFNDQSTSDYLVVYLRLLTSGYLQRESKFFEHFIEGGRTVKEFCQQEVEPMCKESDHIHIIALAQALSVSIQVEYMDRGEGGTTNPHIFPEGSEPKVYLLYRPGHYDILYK

OTUB1 (C91S), sequence (Q96FW1 whole entry C91S): as the sequence (Q96FW1 whole entry) above, with C91S counted along it

| Binder | binding result (OTUB1 (C91S)) | binding result (OTUB1 wild-type) | Kd (OTUB1 (C91S)) [µM] |
| --- | --- | --- | --- |
| UBE2D1 (enzyme) not shown | binds | binds |  |
| UBE2E1 (enzyme, human, UniProt P51965 1-193, looked up) MSDDDSRASTSSSSSSSSNQQTEKETNTPKKKESKVSMSKNSKLLSTSAKRIQKELADITLDPPPNCSAGPKGDNIYEWRSTILGPPGSVYEGGVFFLDITFTPEYPFKPPKVTFRTRIYHCNINSQGVICLDILKDNWSPALTISKVLLSICSLLTDCNPADPLVGSIATQYMTNRAEHDRMARQWTKRYAT | binds |  |  |
| UBE2N (enzyme, human, UniProt P61088 1-152, looked up) MAGLPRRIIKETQRLLAEPVPGIKAEPDESNARYFHVVIAGPQDSPFEGGTFKLELFLPEEYPMAAPKVRFMTKIYHPNVDKLGRICLDILKDKWSPALQIRTVLLSIQALLSAPNPDDPLANDVAEQWKTNEAQAIETARAWTRLYAMNNI |  |  | 8.1 |
